Reference: publication PMC6889417, “Derepression of LOXL4 inhibits liver cancer growth by reactivating compromised p53” (Cell Death and Differentiation, 2019)

Target: wild-type p53, endogenous (human (endogenous in SK-Hep1, HepG2), UniProt P04637 1-393)
Assay: cell-based or functional assay

Sequence of wild-type p53, endogenous (P04637 whole entry): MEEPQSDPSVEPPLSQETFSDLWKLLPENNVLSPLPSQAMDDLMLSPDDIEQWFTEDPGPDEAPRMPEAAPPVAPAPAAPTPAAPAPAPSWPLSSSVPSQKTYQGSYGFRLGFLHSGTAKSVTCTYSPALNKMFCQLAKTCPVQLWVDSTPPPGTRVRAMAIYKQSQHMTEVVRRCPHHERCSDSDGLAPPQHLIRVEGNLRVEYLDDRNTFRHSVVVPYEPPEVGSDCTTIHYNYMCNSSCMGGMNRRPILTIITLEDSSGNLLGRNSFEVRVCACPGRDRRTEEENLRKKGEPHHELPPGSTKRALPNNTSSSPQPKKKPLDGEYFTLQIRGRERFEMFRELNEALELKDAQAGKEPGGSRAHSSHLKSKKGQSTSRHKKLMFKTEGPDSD

expression of the p53 target genes PIG3 and BAX (quantitative real time PCR) after 5-aza-CR (5 μM, 16 h) in WT cells against 2DR cells: > 10 fold
B1: lysyl oxidase-like 4 (LOXL4), endogenous (natural protein, UniProt Q96JB6 25-756, looked up)
chain: QSLGTTKLRLVGPESKPEEGRLEVLHQGQWGTVCDDNFAIQEATVACRQLGFEAALTWAHSAKYGQGEGPIWLDNVRCVGTESSLDQCGSNGWGVSDCSHSEDVGVICHPRRHRGYLSETVSNALGPQGRRLEEVRLKPILASAKQHSPVTEGAVEVKYEGHWRQVCDQGWTMNNSRVVCGMLGFPSEVPVDSHYYRKVWDLKMRDPKSRLKSLTNKNSFWIHQVTCLGTEPHMANCQVQVAPARGKLRPACPGGMHAVVSCVAGPHFRPPKTKPQRKGSWAEEPRVRLRSGAQVGEGRVEVLMNRQWGTVCDHRWNLISASVVCRQLGFGSAREALFGARLGQGLGPIHLSEVRCRGYERTLSDCPALEGSQNGCQHENDAAVRCNVPNMGFQNQVRLAGGRIPEEGLLEVQVEVNGVPRWGSVCSENWGLTEAMVACRQLGLGFAIHAYKETWFWSGTPRAQEVVMSGVRCSGTELALQQCQRHGPVHCSHGGGRFLAGVSCMDSAPDLVMNAQLVQETAYLEDRPLSQLYCAHEENCLSKSADHMDWPYGYRRLLRFSTQIYNLGRTDFRPKTGRDSWVWHQCHRHYHSIEVFTHYDLLTLNGSKVAEGHKASFCLEDTNCPTGLQRRYACANFGEQGVTVGCWDTYRHDIDCQWVDITDVGPGNYIFQVIVNPHYEVAESDFSNNMLQCRCKYDGHRVWLHNCHTGNSYPANAELSLEQEQRLRNNLI
